Reference: publication PMC7617869 (Nature Structural & Molecular Biology, 2025)

What was measured:
Conditions in all cases: both partners purified
[1] = molecular target: T1, His-tagged BRISC (wild type) (human, UniProt P46736 1-316; Q15018 1-415; Q9NXR7 1-383; Q9NWV8 1-329); test: other fluorescence titration; spectral shift (Dianthus); labelled His–BRISC first incubated with 100 μM JMS-175-2 (1% DMSO) 15 min, then with SHMT2(A285T) 30 min at 25 °C
[2] = molecular target: T1, His-tagged BRISC (wild type); test: other fluorescence titration; spectral shift (Dianthus); labelled His–BRISC first incubated with 100 μM FX-171-C (1% DMSO) 15 min, then with SHMT2(A285T) 30 min at 25 °C
[3] = molecular target: T1, His-tagged BRISC (wild type); test: other fluorescence titration; spectral shift (Dianthus); 12.5 nM RED-Tris-NTA-labelled His–BRISC, SHMT2(A285T) 46 μM to 1.4 nM; 25 mM HEPES pH 7.5, 150 mM NaCl, 1 mM DTT, 0.005% Tween-20; 25 °C; no compound

KD after incubation of BRISC with JMS-175-2 [1]: 700 ± 300 nM
KD after incubation of BRISC with FX-171-C [2]: 3600 ± 1800 nM
Kd [3]: 400 ± 100 nM
B1: SHMT2ΔN(A285T) (residues 18–504) (enzyme)
chain: QLVRMAIRAQHSNAAQTQTGEANRGWTGQESLSDSDPEMWELLQREKDRQCRGLELIASENFCSRAALEALGSCLNNKYSEGYPGKRYYGGAEVVDEIELLCQRRALEAFDLDPAQWGVNVQPYSGSPANLAVYTALLQPHDRIMGLDLPDGGHLTHGYMSDVKRISATSIFFESMPYKLNPKTGLIDYNQLALTARLFRPRLIIAGTSAYARLIDYARMREVCDEVKAHLLADMAHISGLVAAKVIPSPFKHADIVTTTTHKTLRGTRSGLIFYRKGVKAVDPKTGREIPYTFEDRINFAVFPSLQGGPHNHAIAAVAVALKQACTPMFREYSLQVLKNARAMADALLERGYSLVSGGTDNHLVLVDLRPKGLDGARAERVLELVSITANKNTCPGDRSAITPGGLRLGAPALTSRQFREDDFRRVVDFIDEGVNIGLEVKSKTAKLQDFKSFLLKDSETSQRLANLRQRVEQFARAFPMPGFDEH
notes: serine hydroxymethyltransferase 2 (SHMT2), residues 18-504; also called SHMT2(A285T); serine hydroxymethyltransferase 2
